We go through 2 molecules from article PMC11169541 (2024).

The target in experiment [1] is T1, SARS-CoV N protein (nucleocapsid) peptide on HLA-A*02:01 (human).
T1 peptide: RTATKQYNV
Briefly: multimer staining.

The target in experiment [2] is T2, SARS-CoV-2 N protein (nucleocapsid) peptide on HLA-A*02:01 (human).
T2 peptide: RTATKAYNV
Put plainly: multimer staining.

B1: TCR-4 (TCR)
alpha TRAV17*01 TRAJ27*01 CDR3: CATDEDTNAGKSTF
beta TRBV4-1*01 TRBJ1-1*01 CDR3: CASSPDPWGVDTEAFF
In the case of B1, the values for the binding result in experiment [1] and in experiment [2] were “no recognition” and “recognises”, respectively.

B2: TCR-2 (TCR)
alpha TRAV4*01 TRAJ34*01 CDR3: CLVGDVDTDKLIF
beta TRBV20-1*05 TRBJ1-6*01 CDR3: CSASHPGDSPLHF
For B2, the figures for the binding result in experiment [1] and in experiment [2] were “no recognition” and “recognises”, respectively.
